Tests used:
p85α = biological target: T1, p85α (Bos taurus, UniProt P23727); assay: GST pull down assay: interaction of rIRS-1^449-664 with p85α; type: binding, bovine; conditions: for p85α binding after PKC-ζ treatment, % of control: insulin-stimulated control value set as 100%, n=3
T1 construct: GST (N, cleaved yes); made in house; host or cells: Escherichia coli BL21
Description: In vitro phosphorylated rIRS-1^449-664 was incubated with glutathione sepharose beads on a rotator for 1 h at 4° C. Pellets were washed three times with binding buffer (50 mM Tris (pH 7.4), 150 mM NaCl, 1% (v/v) Nonidet P-40, 1 mM EDTA, 1 mM NaF, 1 mM Na3VO4). Then 0.5 μg recombinant p85α was added and incubation was continued for 2 h at 4° C. After three times washing, the bound proteins were eluted with 20 μl of 2× sample buffer and separated by SDS-PAGE.
Proteins were separated by SDS-PAGE using 8-18% gradient gels followed by transfer to nitrocellulose in a semi-dry blotting apparatus. The membrane was then blocked 60 min in Tris-buffered saline containing 0.05% Tween 20 and 1% BSA or 5% non fat dry milk and probed with appropriate antibodies (anti-IRS-1, anti-pTyr, anti-p85α). After extensive washing, the membranes were incubated with horseradish peroxidase-conjugated secondary antibodies, again washed and then the protein bands were visualized by the enhanced chemiluminescence (ECL) method on a Lumilmager workstation (Boehringer, Mannheim, Germany). All blots were quantified using the Lumilmager software. Significance of reported differences was evaluated by using the null hypothesis and t statistics for unpaired data. A p value less than 0.05 was considered to be statistically significant.

insulin receptor = biological target: T2, insulin receptor (Rattus norvegicus, UniProt P15127); assay: In vitro phosphorylation assay: tyrosine phosphorylation of rIRS-1^449-664 by insulin receptor; type: biochemical; conditions: rIRS-1^449-664 preincubated with 0.5 μg PKC for 30 min; insulin-stimulated value set as 100%
T2 construct: from tissue; host or cells: rat liver
Description: Rat liver was rapidly removed, immediately frozen in liquid nitrogen and processed as described (41). Briefly, 3.5 vol/wt of an ice-cold buffer consisting of 50 mM Hepes (pH 7.4), 1% Triton X-100 and 2× Complete Protease Inhibitors was added and the liver was homogenized using an Ultraturrax and a Potter-Elvehjem homogenizer, followed by centrifugation at 10,000×g for 10 min at 4° C. The resultant supernatant was slowly stirred at room temperature for 60 min, then again centrifuged at 100,000×g for 90 min at 4° C. The supernatant was then applied to an agarose-bound wheat germ agglutinin (WGA) column. The column was washed with 50 mM Hepes (pH 7.4), 0.1% Triton X-100, and bound glycoproteins were eluted from the WGA column with this buffer containing 0.3 M N-acetylglucoseamine.
For rIRS-1^449-664 phosphorylation by insulin receptor, […] of the WGA-purified glycoprotein fraction was preincubated for 30 min at 30° C. with 100 nM of insulin in a phosphorylation buffer containing 20 mM Hepes (pH 7.4), 1 mM DTT, 10 mM MgCl2, 100 μg/ml bovine serum albumin, 0.2 mM Na3VO4, 1.7 mM CaCl2, 0.6 mg/ml phosphatidylserine, and 0.5 μg/ml okadaic acid. Autophosphorylation was initiated by the addition of ATP at a concentration of 50 μM and continued for 10 min at 30° C. Substrate phosphorylations were initiated by addition of equal volumes of […] (1 μg) with or without pre-treatment (30 min) by the PKC isoforms in the same buffer in the presence of 50 μM ATP and was allowed to proceed for 10 min at 30° C. in a final volume of 50 μl. The reaction was terminated by the addition of 6× sample buffer (0.35 M Tris-HCl (pH 6.8), 10.28% (w/v) SDS, 36% (v/v) glycerol; 0.6 M DTT, 0.012% (w/v) bromphenol blue) and boiling for 5 min. Proteins were separated by SDS-PAGE and analyzed by immunodetection with an anti-phosphotyrosine antibody after transfer to nitrocellulose. Serine/threonine phosphorylation of rIRS-1^449-664 by different PKC isoforms was assessed by incubating 1 μg rIRS-1^449-664 with 0.5 μg PKC-rb or PKC-ζ in phosphorylation buffer for 30 min at 30° C. in the presence of 50 μM ATP plus 2 μCi [γ-^32P]ATP in a volume of 20 μl. Proteins were resolved by SDS-PAGE and the stained and dried gels were subjected to autoradiography. The extent of phosphate incorporation was determined by Cerenkov counting of excised fragments.
Proteins were separated by SDS-PAGE using 8-18% gradient gels followed by transfer to nitrocellulose in a semi-dry blotting apparatus. […] All blots were quantified using the Lumilmager software. Significance of reported differences was evaluated by using the null hypothesis and t statistics for unpaired data. […]

IR β-subunit = biological target: T3, IR β-subunit (Rattus norvegicus, UniProt P15127); assay: Autophosphorylation of IR β-subunit in the presence of PKC isoforms; type: biochemical; conditions: autoactivated receptor incubated 10 min at 30° C. with PKC
T3 construct: from tissue; host or cells: rat liver
Description: (A) Autophosphorylation of IR was conducted as outlined in FIG. 2. Either PKC-rb or PKC-ζ was added after 10 min of autophosphorylation and incubation was continued for another 10 min. Tyrosine phosphorylation of IR β-subunit was then analyzed by immunoblotting. (B) Quantification of blots was obtained using Lumi Imager software. Data are mean values±SEM (n=4-6).
For rIRS-1^449-664 phosphorylation by insulin receptor, […] of the WGA-purified glycoprotein fraction was preincubated for 30 min at 30° C. with 100 nM of insulin in a phosphorylation buffer containing 20 mM Hepes (pH 7.4), 1 mM DTT, 10 mM MgCl2, 100 μg/ml bovine serum albumin, 0.2 mM Na3VO4, 1.7 mM CaCl2, 0.6 mg/ml phosphatidylserine, and 0.5 μg/ml okadaic acid. Autophosphorylation was initiated by the addition of ATP at a concentration of 50 μM and continued for 10 min at 30° C. […] Proteins were separated by SDS-PAGE and analyzed by immunodetection with an anti-phosphotyrosine antibody after transfer to nitrocellulose. Serine/threonine phosphorylation of rIRS-1^449-664 by different PKC isoforms was assessed by incubating 1 μg rIRS-1^449-664 with 0.5 μg PKC-rb or PKC-ζ in phosphorylation buffer for 30 min at 30° C. in the presence of 50 μM ATP plus 2 μCi [γ-^32P]ATP in a volume of 20 μl. […] The extent of phosphate incorporation was determined by Cerenkov counting of excised fragments.

T1 sequence (P23727 whole entry): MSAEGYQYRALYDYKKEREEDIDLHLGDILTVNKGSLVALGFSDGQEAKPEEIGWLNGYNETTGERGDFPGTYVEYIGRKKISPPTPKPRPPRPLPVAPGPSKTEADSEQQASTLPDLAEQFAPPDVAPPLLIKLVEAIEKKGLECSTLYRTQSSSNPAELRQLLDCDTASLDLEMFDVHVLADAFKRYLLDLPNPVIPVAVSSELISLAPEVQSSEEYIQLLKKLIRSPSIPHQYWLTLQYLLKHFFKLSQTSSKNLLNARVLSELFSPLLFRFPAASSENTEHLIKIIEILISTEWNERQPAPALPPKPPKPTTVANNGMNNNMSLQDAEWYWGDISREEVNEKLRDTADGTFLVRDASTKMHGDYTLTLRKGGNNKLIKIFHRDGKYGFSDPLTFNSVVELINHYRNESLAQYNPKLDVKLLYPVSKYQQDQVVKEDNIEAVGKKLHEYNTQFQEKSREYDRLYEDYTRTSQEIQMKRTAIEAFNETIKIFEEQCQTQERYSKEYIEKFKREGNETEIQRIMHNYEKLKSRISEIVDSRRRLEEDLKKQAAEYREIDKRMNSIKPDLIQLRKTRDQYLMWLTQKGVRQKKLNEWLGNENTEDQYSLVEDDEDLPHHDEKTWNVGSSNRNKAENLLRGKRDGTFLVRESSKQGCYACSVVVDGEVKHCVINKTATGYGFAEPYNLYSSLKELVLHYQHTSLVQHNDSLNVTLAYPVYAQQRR
T3 sequence (P15127 27-759 limits assumed): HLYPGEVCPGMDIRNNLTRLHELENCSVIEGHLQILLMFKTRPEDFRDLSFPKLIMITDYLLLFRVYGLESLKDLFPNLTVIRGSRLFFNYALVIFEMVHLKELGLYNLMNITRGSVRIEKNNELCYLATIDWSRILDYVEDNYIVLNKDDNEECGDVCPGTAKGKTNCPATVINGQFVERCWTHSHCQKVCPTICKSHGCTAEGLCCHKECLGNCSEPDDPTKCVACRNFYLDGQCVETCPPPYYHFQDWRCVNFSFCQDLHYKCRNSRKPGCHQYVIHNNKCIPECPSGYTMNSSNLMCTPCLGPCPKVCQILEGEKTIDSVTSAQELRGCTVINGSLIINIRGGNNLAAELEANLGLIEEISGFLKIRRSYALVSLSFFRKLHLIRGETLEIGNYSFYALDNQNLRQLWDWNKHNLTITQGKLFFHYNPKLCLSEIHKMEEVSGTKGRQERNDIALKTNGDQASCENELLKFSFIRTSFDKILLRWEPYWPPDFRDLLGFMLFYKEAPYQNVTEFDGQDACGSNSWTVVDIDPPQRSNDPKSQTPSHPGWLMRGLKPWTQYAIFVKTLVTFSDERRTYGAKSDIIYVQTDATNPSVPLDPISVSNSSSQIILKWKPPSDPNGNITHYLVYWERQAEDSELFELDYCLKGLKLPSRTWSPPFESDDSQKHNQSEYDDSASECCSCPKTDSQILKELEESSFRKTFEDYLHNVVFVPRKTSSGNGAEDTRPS
T2 sequence (P15127 27-759 limits assumed): as above

p85α binding after PKC-ζ treatment, % of control (p85α)	Reduction of insulin-stimulated tyrosine phosphorylation of rIRS-1^449-664 by PKC pretreatment (insulin receptor)	Inhibition of p85α association with rIRS-1^449-664 by PKC pretreatment (p85α; rIRS-1^449-664 preincubated with 0.5 μg PKC for 30 min, insulin-stimulated value set as 100%)	Alteration of IR autophosphorylation compared to controls (IR β-subunit)	Molecule
28±3 % of control				S612A: serine 612 to alanine mutant of rIRS-1^449-664 GST fusion protein (protein, UniProt P35570 449-664, looked up, variant S612A, GST fusion, serine 612 to alanine mutant of rIRS-1^449-664 GST fusion protein) PPARGEEELSNYICMGGKGASTLTAPNGHYILSRGGNGHRYIPGATMGTSPALTGDEAAGAADLDNRFRKRTHSAGTSPTISHQKTPSQSSVVSIEEYTEMMPAAYPPGGGSGGRLPGYRHSAFVPTHSYPEEGLEMHHLERRGGHHRPDSSNLHTDDGYMPMAPGVAPVPSNRKGNGDYMPMSPKSVSAPQQIINPIRRHPQRVDPNGYMMMSPS
43±4 % of control				S570A: serine 570 to alanine mutant of rIRS-1^449-664 GST fusion protein (protein, UniProt P35570 449-664, looked up, variant S570A, GST fusion, serine 570 to alanine mutant of rIRS-1^449-664 GST fusion protein) PPARGEEELSNYICMGGKGASTLTAPNGHYILSRGGNGHRYIPGATMGTSPALTGDEAAGAADLDNRFRKRTHSAGTSPTISHQKTPSQSSVVSIEEYTEMMPAAYPPGGGSGGRLPGYRHAAFVPTHSYPEEGLEMHHLERRGGHHRPDSSNLHTDDGYMPMSPGVAPVPSNRKGNGDYMPMSPKSVSAPQQIINPIRRHPQRVDPNGYMMMSPS
	46±5%	81±1%	No significant alteration	PKC-ζ: recombinant human protein kinase C-ζ, obtained from Calbiochem (protein) MPSRTGPKMEGSGGRVRLKAHYGGDIFITSVDAATTFEELCEEVRDMCRLHQQHPLTLKWVDSEGDPCTVSSQMELEEAFRLARQCRDEGLIIHVFPSTPEQPGLPCPGEDKSIYRRGARRWRKLYRANGHLFQAKRFNRRAYCGQCSERIWGLARQGYRCINCKLLVHKRCHGLVPLTCRKHMDSVMPSQEPPVDDKNEDADLPSEETDGIAYISSSRKHDSIKDDSEDLKPVIDGMDGIKISQGLGLQDFDLIRVIGRGSYAKVLLVRLKKNDQIYAMKVVKKELVHDDEDIDWVQTEKHVFEQASSNPFLVGLHSCFQTTSRLFLVIEYVNGGDLMFHMQRQRKLPEEHARFYAAEICIALNFLHERGIIYRDLKLDNVLLDADGHIKLTDYGMCKEGLGPGDTTSTFCGTPNYIAPEILRGEEYGFSVDWWALGVLMFEMMAGRSPFDIITDNPDMNTEDYLFQVILEKPIRIPRFLSVKASHVLKGFLNKDPKERLGCRPQTGFSDIKSHAFFRSIDWDLLEKKQALPPFQPQITDDYGLDNFDTQFTSEPVQLTPDDEDAIKRIDQSEFEGFEYINPLLLSTEESV

From patent US7803571B2, “Method for identifying IRS inhibitors or agonists” (Sanfoi-Aventis Deutschland GmbH, priority 2003, dated 2010)
